Source: article PMC3540032, “Comprehensive Analysis and Identification of the Human STIM1 Domains for Structural and Functional Studies” (PLoS ONE, 2013)

Biological target: T1, hSTIM1 S340-M490 (CAD-containing construct) (human, UniProt Q13586 340-490)
T1 construct: also called the CAD; source: E. coli Rosetta (DE3), purified (IMAC, SEC, IEX, low salt SEC)
Test: SPR; Biacore T200; Orai1 peptide immobilised on a CM5 chip by ligand thiol coupling at 1000 RU; analytes injected at 10 µM; HBS-EP buffer (20 mM HEPES, pH 7.4, 150 mM NaCl, 3.4 mM EDTA, 0.005% Polysorbate 20), 30 µL/min
Conditions: both partners purified

T1 sequence (Q13586 340-490): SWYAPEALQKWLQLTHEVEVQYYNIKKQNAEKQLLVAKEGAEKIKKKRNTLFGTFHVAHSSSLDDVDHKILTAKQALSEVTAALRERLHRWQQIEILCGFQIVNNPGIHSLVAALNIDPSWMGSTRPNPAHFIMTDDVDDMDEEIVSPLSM

B1: Orai1 C-terminal peptide with an extra N-terminal Cys (peptide)
peptide: CRSLVSHKTDRQFQELNELAEFARLQDQLDHRGDHPLTPGSHYA
notes: extra Cys added to the N-terminus for immobilisation via thiol coupling; The added Cys is coupled to the CM5 chip by thiol coupling, which leaves the C-terminal end free; also called Orai1 C-terminus; Orai1 C-terminal domain; source: synthetic peptide (Peptide 2.0), purified by SEC (Superdex Peptide)
- binding result: binds
